Consider 35 molecules from US20200377590A1 (Hoffmann-La Roche, published 2020).

The target of test [1] is T1, CD81 (UniProt P60033 1-236, limits assumed).
T1 construct: whole, on cells; also called CD81 receptor
T1 sequence (looked up): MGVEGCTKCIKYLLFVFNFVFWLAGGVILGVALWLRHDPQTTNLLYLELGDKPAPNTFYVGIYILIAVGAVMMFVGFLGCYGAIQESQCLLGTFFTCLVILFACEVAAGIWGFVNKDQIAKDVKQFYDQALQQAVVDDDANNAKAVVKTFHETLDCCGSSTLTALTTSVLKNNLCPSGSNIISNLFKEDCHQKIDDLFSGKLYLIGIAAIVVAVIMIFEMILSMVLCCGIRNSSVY
In words: cell ELISA. A general note: In an ELISA, binding on a coated surface is turned into a signal by an enzyme label.
Description: For the binding cell ELISA assay, HuH7-Rluc-H3 (positive cell line expressing CD81) and HuH7-Rluc-L1 (negative control cell line) were propagated in F-12 DMEM medium with 10% FCS at 37° C. and 5% CO₂. On day 1, the cells were trypsinized at approximately 90% confluence and resuspended at 4×10⁵ cells/mL. […] On day 2, the antibody samples to be tested were prepared in a separate polypropylene round bottom plate with a twofold desired concentration with a final volume of 120 μl. All of the assay samples were diluted in cell culture medium. […] After fixation, each well was washed 3 times with 200 μL PBS/0.05% Tween. The secondary incubation step for detection of bound anti-CD81 antibodies was performed for 2 h at room temperature on a reciprocal shaker. […] Each well was washed three times with 200 μL PBS/0.05% Tween to remove unbound antibodies. […] The absorbance was read using the ELISA Tecan reader at 450 nm with 620 nm reference wavelength.

For test [2], the target named is T1, CD81. In words: cell ELISA. The source holds these as a separate data set.

Numbering of substitutions follows the chain as printed. Like-named read-outs stand apart in the source and are kept apart here.
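Further: antibody binding to HuH7 cells expressing CD81 versus a CD81-negative HuH7 control line, bound antibody detected by secondary reagent, absorbance at 450 nm with 620 nm reference.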

B1: CD81K13 HC CD81K13 / LC 1c-hVK_3_15 (antibody, V domains shown)
VH: EVRLHQSAAQLVQPGASVRLSCTTSGFNFKDSYLHWVKQRPAQGLEWIGRIDTGNGNVKFDPKFQDKATITTDIPSMTAYLHLSNLTSEDTAVYYCVPYGYGFHSWGDGTTLTVSS
VL: EIVMTQSPATLSVSPGERATLSCRASENIYRTLAWYQQKPGQAPRLLIYGATTLADGIPARFSGSGSGTEFTLTISSLQSEDFGVYYCQHFWGTPWTFGQGTKVEIK
notes: human constant region
Consider B1, for which the ELISA data in test [1] is 0.95.

B2: CD81K13 HC CD81K13 / LC 05-hVK_1_39 (antibody, V domains shown)
VH: B1 VH
VL: DIQMTQSPSSLSASVGDRVTITCRASENIYRTLAWYQQKPGKAPKLLIYAATTLASGVPSRFSGSGSGTDFTLTISSLQPEDFATYYCQHFWGTPWTFGQGTKVEIK
notes: human constant region
Consider B2, for which the ELISA data in test [1] worked out at 0.886.

B3: CD81K13 HC CD81K13 / LC 03-hVK_1_9 (antibody, V domains shown)
VH: B1 VH
VL: B2 VL with M4L, S10F, D70E
notes: human constant region
B3 gave an ELISA data in test [1] of 0.949.

B4: CD81K13 HC CD81K13 / LC 5b-hVK_1_39 (antibody, V domains shown)
VH: B1 VH
VL: B2 VL with A50G, S56D
notes: human constant region
On to B4, for which the ELISA data in test [1] turned out to be 0.594.

B5: CD81K13 HC CD81K13 / LC 06-hVK_1_39 (antibody, V domains shown)
VH: B1 VH
VL: B2 VL with A84G
notes: human constant region
Take B5: the ELISA data in test [1] is 0.811.

B6: CD81K13 HC CD81K13 / LC 1b-hVK_3_15 (antibody, V domains shown)
VH: B1 VH
VL: B1 VL with G84A
notes: human constant region
In test [1], B6 yielded an ELISA data of 0.86.

B7: CD81K13 HC CD81K13 / LC 04-hVK_1_9 (antibody, V domains shown)
VH: B1 VH
VL: B2 VL with M4L, S10F, D70E, A84G
notes: human constant region
B7 came in with an ELISA data in test [1] of 0.851.

B8: CD81K13 HC CD81K13 / LC 01-hVK_3_15 (antibody, V domains shown)
VH: B1 VH
VL: B1 VL with L54R, D56T
notes: human constant region
As for B8, in test [1], the ELISA data stood at 1.01.

B9: CD81K13 HC CD81K13 / LC 5b-hVK_1_39-GA (antibody, V domains shown)
VH: B1 VH
VL: B2 VL with A50G, S56D
notes: human constant region
With B9, in test [1], the ELISA data was 0.751.

B10: CD81K04 HC CD81K04 / LC GG-06-hVK_1_39 (antibody, V domains shown)
VH: QVQLQQSGPELVKPGASVKISCKASGYTFSSSWMNWVKQRPGKGLEWIGRIYSGDGDAIYNGKFKGKATLTADKSSSTAYMQLSSLTSEDSAVYFCAREGKTGDLLLRSWGQGSALTVSS
VL: DIQMTQSPSSLSASVGDRVTITCRASKSVSTSIYSYLNWYQQKPGKAPKLLIYYASYLQSGVPSRFSGSGSGTDFTLTISSLQPEDFATYYCQHSREFPYTFGQGTKLEIK
notes: human constant region
Consider B10, for which, in test [2], the ELISA data amounted to 0.185.

B11: CD81K04 HC GG-01-hVH_5_51 / LC GG-06-hVK_1_39 (antibody, V domains shown)
VH: EVQLVQSGAEVKKPGESLKISCKGSGYSFSSSWMNWVRQMPGKGLEWMGRIYSGDGDAIYSPSFQGQVTISADKSISTAYLQLSSLKASDTAMYYCAREGKTGDLLLRSWGQGTLVTVSS
VL: B10 VL
notes: human constant region
B11 came in with an ELISA data in test [2] of 0.089.

B12: CD81K04 HC CD81K04 / LC GG-02-hVK_4_1 (antibody, V domains shown)
VH: B10 VH
VL: DIVMTQSPDSLAVSLGERATINCKSSKSVSTSIYSYMHWYQQKPGQPPKLLIYYASYRESGVPDRFSGSGSGTDFTLTISSLQAEDVAVYYCQHSREFPFTFGQGTKLEIK
notes: human constant region
The molecule B12 gave an ELISA data in test [2] of 0.785.

B13: CD81K04 HC CD81K04 / LC JA_GG-10-hVK_4_1 (antibody, V domains shown)
VH: B10 VH
VL: B12 VL with K24R, S25A, Y53K, R58L, Q93E
notes: human constant region
In test [2], B13 gave an ELISA data of 1.06.

B14: CD81K04 HC GG-03-hVH_1_69 / LC CD81K04 (antibody, V domains shown)
VH: QVQLVQSGAEVKKPGSSVKVSCKASGYTFSSSWMNWVRQAPGQGLEWMGRIYSGDGDAIYAQKFQGRVTITADESTSTAYMELSSLRSEDTAVYYCAREGKTGDLLLRSWGQGTLVTVSS
VL: DIVLTQSPASLSVSLGQRATISCRASKSVSTSIYSYMHWYQQKPGQPPKLLIKYASYLESGVPARFSGSGSGTDFTLNIHPVEEEDAATYYCEHSREFPFTFGTGTKLEIK
notes: human constant region
For the molecule B14, the ELISA data in test [2] worked out at 0.843.

B15: CD81K04 HC GG-01-hVH_5_51 / LC CD81K04 (antibody, V domains shown)
VH: B11 VH
VL: B14 VL
notes: human constant region
Take B15: the ELISA data in test [2] turned out to be 0.082.

B16: CD81K04 HC CD81K04 / LC CD81K04 (antibody, V domains shown)
VH: B10 VH
VL: B14 VL
notes: human constant region; also called CD81K04 (chimeric form)
B16 displayed an ELISA data in test [2] of 1.14.

B17: CD81K04 HC GG-05-hVH_1_18 / LC JA_GG-10-hVK_4_1 (antibody, V domains shown)
VH: B14 VH with S16A, F64L, I70M, A72T, E74T, S84R, E89D
VL: B12 VL with K24R, S25A, Y53K, R58L, Q93E
notes: human constant region
In the case of B17, the ELISA data in test [2] came out at 0.841.

B18: CD81K04 HC JA_GG-15-hVH_1_3 / LC CD81K04 (antibody, V domains shown)
VH: B14 VH with S16A, G44R, A61N, Q62G, Q65K, E74T, T76A
VL: B14 VL
notes: human constant region
Molecule B18 registered an ELISA data in test [2] of 1.

B19: CD81K04 HC JA_GG-14-hVH_1_3 / LC CD81K04 (antibody, V domains shown)
VH: B14 VH with S16A, A61N, Q62G, Q65K, V68A, E74T, T76A
VL: B14 VL
notes: human constant region
The molecule B19 gave an ELISA data in test [2] of 0.998.

B20: CD81K04 HC JA_GG-14-hVH_1_69 / LC CD81K04 (antibody, V domains shown)
VH: B14 VH with A61N, Q62G, Q65K, R67K, V68A
VL: B14 VL
notes: human constant region
With B20, the ELISA data in test [2] came to 0.996.

B21: CD81K04 HC JA_GG-13-hVH_1_69 / LC CD81K04 (antibody, V domains shown)
VH: B14 VH with Y27G
VL: B14 VL
notes: human constant region
In turn, B21 showed an ELISA data in test [2] of 0.564.

B22: CD81K04 HC GG-06-hVH_1_69 / LC CD81K04 (antibody, V domains shown)
VH: B14 VH with N35C, R50C, A61N
VL: B14 VL
notes: human constant region
In test [2], B22 returned an ELISA data of 0.342.

B23: CD81K04 HC GG-04-hVH_1_69 / LC CD81K04 (antibody, V domains shown)
VH: B14 VH with A61N, V68A
VL: B14 VL
notes: human constant region
In turn, B23 returned an ELISA data in test [2] of 0.859.

B24: CD81K04 HC JA_GG-16-hVH_1_3 / LC CD81K04 (antibody, V domains shown)
VH: B14 VH with S16A, A61N, Q62G, Q65K, E74T, T76A
VL: B14 VL
notes: human constant region
With B24, the ELISA data in test [2] came out at 0.98.

B25: CD81K04 HC K04_JA-13-hVH_1_3 / LC CD81K04 (antibody, V domains shown)
VH: B14 VH with S16A, G44R, A61N, Q62G, Q65K, A72R, E74T, T76A
VL: B14 VL
notes: human constant region
With B25, in test [2], the ELISA data was determined as 0.974.

B26: CD81K04 HC JA_GG-14-hVH_1_69-GA / LC CD81K04 (antibody, V domains shown)
VH: B14 VH with A61N, Q62G, Q65K, R67K, V68A
VL: B14 VL
notes: human constant region
In test [2], B26 displayed an ELISA data of 0.877.

B27: CD81K04 HC GG-07-hVH_5_51 / LC CD81K04 (antibody, V domains shown)
VH: B11 VH with N35C, R50C
VL: B14 VL
notes: human constant region
For B27, the ELISA data in test [2] came out at 0.233.

B28: CD81K04 HC GG-01-hVH_5_51 / LC GG-02-hVK_4_1 (antibody, V domains shown)
VH: B11 VH
VL: B12 VL
notes: human constant region
For B28, the ELISA data in test [2] was determined as 0.081.

B29: CD81K04 HC GG-01-hVH_5_51 / LC GG-05-hVK_3_11 (antibody, V domains shown)
VH: B11 VH
VL: EIVLTQSPATLSLSPGERATLSCRASKSVSTSIYSYLHWYQQKPGQAPRLLIYYASNRETGIPARFSGSGSGTDFTLTISSLEPEDFAVYYCQHSREFPFTFGQGTKLEIK
notes: human constant region
Turning to B29, the ELISA data in test [2] turned out to be 0.073.

B30: CD81K04 HC GG-01-hVH_5_51 / LC JA_GG-07-hVK_7_3 (antibody, V domains shown)
VH: B11 VH
VL: DIVLTQSPASLAVSPGQRATITCRASKSVSTSIYSYMHWYQQKPGQPPKLLIKYASNKDTGVPARFSGSGSGTDFTLTINPVEANDAANYYCLHSREFPYTFGQGTKLEIK
notes: human constant region
In turn, B30 gave an ELISA data in test [2] of 0.061.

B31: CD81K04 HC GG-01-hVH_5_51 / LC GG-04-hVK_4_1 (antibody, V domains shown)
VH: B11 VH
VL: B12 VL with M37L, H38A, Y57T, F100Y
notes: human constant region
Consider B31, for which the ELISA data in test [2] was determined as 0.186.

B32: CD81K04 HC GG-01-hVH_5_51 / LC JA_GG-08-hVK_4_1 (antibody, V domains shown)
VH: B11 VH
VL: B12 VL with Y53K, R58L, Q93E
notes: human constant region
Consider B32, for which, in test [2], the ELISA data came out at 0.164.

B33: CD81K04 HC GG-01-hVH_5_51 / LC JA_GG-09-hVK_4_1 (antibody, V domains shown)
VH: B11 VH
VL: B12 VL with Y53K, Y57T, Q93E
notes: human constant region
In test [2], B33 had an ELISA data of 0.148.

B34: CD81K04 HC GG-01-hVH_5_51 / LC JA_GG-10-hVK_4_1 (antibody, V domains shown)
VH: B11 VH
VL: B12 VL with K24R, S25A, Y53K, R58L, Q93E
notes: human constant region
Molecule B34 registered an ELISA data in test [2] of 0.064.

B35: CD81K04 HC GG-01-hVH_5_51 / LC GG-03-hVK_4_1 (antibody, V domains shown)
VH: B11 VH
VL: B12 VL with M37L, H38A
notes: human constant region
B35: the ELISA data in test [2] was found to be 0.129.
